Experimental data taken from PMC2132943.

Biological target: CCR5 chemokine receptor (human) (UniProt P51681)
Test: cross-linking

CCR5 chemokine receptor, P51681 1-352 (receptor; other documents disagree on this pair), sequence (P51681 whole entry): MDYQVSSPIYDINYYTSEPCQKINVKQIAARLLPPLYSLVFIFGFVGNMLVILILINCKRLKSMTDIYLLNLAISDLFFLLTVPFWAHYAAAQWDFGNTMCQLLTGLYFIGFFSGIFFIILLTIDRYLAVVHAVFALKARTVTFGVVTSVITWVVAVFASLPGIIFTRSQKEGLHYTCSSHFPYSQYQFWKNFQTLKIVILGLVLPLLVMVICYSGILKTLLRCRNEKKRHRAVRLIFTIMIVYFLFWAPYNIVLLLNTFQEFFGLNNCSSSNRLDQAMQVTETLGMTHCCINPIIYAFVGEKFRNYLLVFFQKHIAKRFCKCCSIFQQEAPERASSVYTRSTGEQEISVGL

- stoichiometry N: 2
Substance: CCR5 chemokine receptor, P51681 1-352 (receptor; other documents disagree on this pair)
